Data: patent US20200255474A1

Target: HA-tagged PHB2 alanine mutant at Ser39 (S39A) (human) (UniProt Q99623)
Assay: anti-HA IP of nuclear extracts of transfected SK-BR-3 cells after 1 µM stERAP, immunoblot

NcoR, O75376 1-2440
reduction rate of binding against WT: 82%
